Measurements published in US20250051454A1 (DUKE UNIVERSITY, published 2025).

Tests used:
[1] = target: T1, HLA-E-RL9SIV single chain trimer on transfected 293T cells (human, UniProt P61769 21-119; P13747 22-358); assay: flow cytometry on SCT-transfected 293T cells
T1 construct: also called control HLA-E-peptide complex

[2] = target: T2, soluble HLA-E-RL9SIV complex (Homo sapiens); assay: sandwich ELISA: plate coated with the antibody in serial dilution, C-trap-stabilized HLA-E-RL9SIV added, detection with HRP anti-human β2M [panel C]
T2 construct: C-trap-stabilized in the ELISA, biotinylated in the SPR; control antigen; also called C-trap-stabilized HLA-E-RL9SIV

[3] = target: T3, soluble HLA-E-RL9HIV complex (Homo sapiens); assay: sandwich ELISA: plate coated with the antibody in serial dilution, C-trap-stabilized HLA-E-RL9HIV added, detection with HRP anti-human β2M [panel C]
T3 construct: C-trap-stabilized in the ELISA, biotinylated in the SPR; control antigen; also called C-trap-stabilized HLA-E-RL9HIV

[4] = target: HLA-E on K562-E cells loaded with microbiome-derived peptide […] (Escherichia coli MS 175-1) (human, UniProt P13747 22-358; P61769 21-119); assay: flow cytometry on peptide-loaded K562-E cells, antibody 10 µg/ml
[5] = target: HLA-E on K562-E cells loaded with microbiome-derived peptide […] (Stenotrophomonas sp.) (human, UniProt P13747 22-358; P61769 21-119); assay: as above
[6] = target: HLA-E on K562-E cells loaded with microbiome-derived peptide […] (Pseudomonas formosensis) (human, UniProt P13747 22-358; P61769 21-119); assay: as above
[7] = target: T4, soluble HLA-E-VL9 complex (HLA-E*01:03 heavy chain, beta2-microglobulin, VL9 peptide …) (human); assay: SPR, antibody on CM5 chip, soluble HLA-E-VL9 flowed over, 1:1 model; IgM 3H4
T4 construct: also called VL9 peptide-loaded HLA-E

[8] = target: T4, soluble HLA-E-VL9 complex (HLA-E*01:03 …); assay: SPR, antibody on CM5 chip, soluble HLA-E-VL9 flowed over, 1:1 model; human IgG1 backbone 3H4
scleroderma 70 (Scl-70) = target: T5, scleroderma 70 (Scl-70) (UniProt P11387 2-765); assay: AtheNA autoantigen assay [panel H]
T5 sequence (looked up): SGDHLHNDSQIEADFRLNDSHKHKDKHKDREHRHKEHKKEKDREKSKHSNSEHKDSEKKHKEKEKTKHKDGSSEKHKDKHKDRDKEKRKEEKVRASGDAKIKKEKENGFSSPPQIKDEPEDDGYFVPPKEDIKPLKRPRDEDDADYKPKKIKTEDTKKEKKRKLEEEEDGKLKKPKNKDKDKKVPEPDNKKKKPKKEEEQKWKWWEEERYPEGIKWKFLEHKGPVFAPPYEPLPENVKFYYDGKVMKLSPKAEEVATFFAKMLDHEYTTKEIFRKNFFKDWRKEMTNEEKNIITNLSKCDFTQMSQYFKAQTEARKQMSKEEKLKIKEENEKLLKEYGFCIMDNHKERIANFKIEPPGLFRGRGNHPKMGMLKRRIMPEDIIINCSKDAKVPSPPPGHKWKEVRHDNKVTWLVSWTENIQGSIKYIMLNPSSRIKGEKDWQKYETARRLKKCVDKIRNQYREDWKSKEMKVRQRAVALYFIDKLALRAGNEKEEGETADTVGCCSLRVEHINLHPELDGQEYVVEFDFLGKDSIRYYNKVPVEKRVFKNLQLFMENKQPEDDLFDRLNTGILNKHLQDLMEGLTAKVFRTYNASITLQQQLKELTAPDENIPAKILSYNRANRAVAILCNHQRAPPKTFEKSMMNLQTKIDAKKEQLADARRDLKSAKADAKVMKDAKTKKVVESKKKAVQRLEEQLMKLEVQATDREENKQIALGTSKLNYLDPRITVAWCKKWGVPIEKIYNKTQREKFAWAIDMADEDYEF

centromere B (Cent B) = target: T6, centromere B (Cent B) (UniProt P07199 1-599); assay: AtheNA autoantigen assay [panel H]
T6 sequence (looked up): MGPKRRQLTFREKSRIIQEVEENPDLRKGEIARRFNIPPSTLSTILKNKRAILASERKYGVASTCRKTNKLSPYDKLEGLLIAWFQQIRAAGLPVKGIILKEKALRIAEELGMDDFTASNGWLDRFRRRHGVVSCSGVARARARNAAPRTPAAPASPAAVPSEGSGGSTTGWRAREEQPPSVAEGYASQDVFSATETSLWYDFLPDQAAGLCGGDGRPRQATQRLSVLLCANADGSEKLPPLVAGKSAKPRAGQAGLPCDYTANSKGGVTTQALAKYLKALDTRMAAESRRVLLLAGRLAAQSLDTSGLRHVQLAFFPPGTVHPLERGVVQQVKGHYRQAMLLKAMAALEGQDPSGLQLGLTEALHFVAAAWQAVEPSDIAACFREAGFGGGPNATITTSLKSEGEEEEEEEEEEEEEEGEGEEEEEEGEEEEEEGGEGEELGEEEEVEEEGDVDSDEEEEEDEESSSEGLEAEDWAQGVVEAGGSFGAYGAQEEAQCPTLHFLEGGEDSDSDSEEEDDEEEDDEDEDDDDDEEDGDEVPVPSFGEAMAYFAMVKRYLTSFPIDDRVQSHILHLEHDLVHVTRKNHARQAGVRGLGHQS

[9] = target: T7, Sjogren's syndrome antigen (SSB) (UniProt P05455 1-408); assay: AtheNA autoantigen assay [panel H]
T7 sequence (looked up): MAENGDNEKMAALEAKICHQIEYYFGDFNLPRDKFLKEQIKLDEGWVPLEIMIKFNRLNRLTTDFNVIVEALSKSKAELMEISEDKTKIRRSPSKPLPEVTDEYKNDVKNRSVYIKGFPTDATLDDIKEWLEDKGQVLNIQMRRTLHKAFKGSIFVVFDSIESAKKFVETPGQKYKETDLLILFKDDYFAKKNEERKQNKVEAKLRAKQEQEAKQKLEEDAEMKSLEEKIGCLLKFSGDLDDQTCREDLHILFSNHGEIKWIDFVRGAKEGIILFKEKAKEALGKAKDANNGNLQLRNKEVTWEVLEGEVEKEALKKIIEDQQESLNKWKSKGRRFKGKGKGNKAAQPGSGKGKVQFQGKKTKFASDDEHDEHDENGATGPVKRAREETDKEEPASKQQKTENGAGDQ

Jo-1 antigen = target: T8, Jo-1 antigen (UniProt P12081 2-509); assay: AtheNA autoantigen assay [panel H]
T8 sequence (looked up): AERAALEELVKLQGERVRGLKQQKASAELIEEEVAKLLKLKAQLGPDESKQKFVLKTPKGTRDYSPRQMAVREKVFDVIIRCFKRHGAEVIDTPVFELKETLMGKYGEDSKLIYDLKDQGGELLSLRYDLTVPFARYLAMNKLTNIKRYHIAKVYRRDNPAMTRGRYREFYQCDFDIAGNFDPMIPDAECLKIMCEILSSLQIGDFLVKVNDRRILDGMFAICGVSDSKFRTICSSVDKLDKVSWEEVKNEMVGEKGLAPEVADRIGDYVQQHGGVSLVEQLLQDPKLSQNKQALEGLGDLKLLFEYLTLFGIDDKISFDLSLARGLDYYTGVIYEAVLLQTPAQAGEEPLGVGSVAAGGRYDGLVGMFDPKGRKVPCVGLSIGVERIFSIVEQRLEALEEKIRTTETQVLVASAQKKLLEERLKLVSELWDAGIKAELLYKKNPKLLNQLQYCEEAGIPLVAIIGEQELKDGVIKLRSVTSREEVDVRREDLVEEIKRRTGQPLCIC

[10] = target: T4, soluble HLA-E-VL9 complex (HLA-E*01:03 …)
[11] = target: T9, HLA-E-RL9HIV single chain trimer on transfected 293T cells (human, UniProt P61769 21-119; P13747 22-358); assay: flow cytometry, SCT-transfected 293T cells, MFI bar chart [E]
T9 construct: also called control HLA-E-peptide complex

[12] = target: T1, HLA-E-RL9SIV single chain trimer on …; assay: as above
[13] = target: T4, soluble HLA-E-VL9 complex (HLA-E*01:03 …); assay: SPR, antibody (human IgG1) on CM5 chip, soluble HLA-E-VL9 flowed over; CA123 on a human IgG1 backbone

B1: 3H4 (mouse IgM monoclonal antibody) (antibody, V domains shown)
VH: EVQLQESGPELVKPGASVKIPCKASGYTFTDYNMDWVKQSHGKSLEWIGDINPNNGGTIYNQKFKGKATLTVDKSSSTAYMELRSLTSEDTAVYYCARPDYYGSSYGWYFDVWGTGTTVTVSS
VL: DIVITQSPSSMYASLGERVTITCKASQDINSYLSWFQQKPGKSPKTLIYRANRLVDGVPSRFSGSGSGQDYSLTISSLEYEDMGIYYCLQYDEFPLTFGAGTKLELK
notes: also called mAb 3H4; IgM 3H4
B1: no binding [1]; no binding [2]; no binding [3]. B1: binds [4]; binds [5]; binds [6]. It also gave a Kd [7] of 8.1 µM.

B2: 3H4 on a human IgG1 backbone (3H4 Gwt) (antibody, V domains shown)
VH: EVQLQESGPELVKPGASVKIPCKASGYTFTDYNMDWVKQSHGKSLEWIGDINPNNGGTIYNQKFKGKATLTVDKSSSTAYMELRSLTSEDTAVYYCARPDYYGSSYGWYFDVWGTGTTVTVSS
VL: DIVITQSPSSMYASLGERVTITCKASQDINSYLSWFQQKPGKSPKTLIYRANRLVDGVPSRFSGSGSGQDYSLTISSLEYEDMGIYYCLQYDEFPLTFGAGTKLELK
notes: also called 3H4 IgG; wild-type 3H4 IgG
In the case of B2, the Kd [8] is reported as 49.8 µM, the binding result (scleroderma 70 (Scl-70)) is reported as “no binding” and the binding result (centromere B (Cent B)) is reported as “no binding”. B2: no binding [9]; no binding (Jo-1 antigen).

B3: CA123 (human antibody on a human IgG1 backbone) (antibody, V domains shown)
VH: EVQLVESGGGLVQPGGSLRLSCAASGFTFSSYWMHWVRQAPGKGLVWVSRINSDGSSTSYADSVKGRFTISRDNAKNTLYLQMNSLRAEDTAVYYCARDQGSTSCYYCYYGMDVWGQGTTVTVSS
VL: not shown
notes: also called CA123 IgG
B3 was tested, and the koff [10] was 0.794 s⁻¹, the kon [10] was 211000 M⁻¹ s⁻¹ and the binding result [11] was “no binding (tested: 2 µg/ml)”. The binding result [12] was “no binding (tested: 2 µg/ml)” and the Kd [13] was 3.8 µM.
